According to patent US20050085442A1:

Experiments:
[1] = molecular target: bovine airway smooth muscle cell mannose receptor (bovine); experiment: cell-based or functional assay
[2] = molecular target: human airway smooth muscle cell mannose receptor (huASMC-MR) (human) (UniProt Q9UBG0); experiment: flow cytometry (cell sorting) of bovine airway smooth muscle cells transfected with full-length huASMC-MR cDNA plasmid; vector control 57/1718 cells

b hexosaminidase-induced mitogenesis in bovine ASMC, inhibition by antisense huASMC-MR morpholino oligonucleotides (5 µM) [1] | percent of cells with increased fluorescence intensity [2] | Substance
37% |  | b hexosaminidase A (human placental β-hexosaminidase, Sigma) (from UniProt P06865 89-529; P07686 122-556) (enzyme)
 | 61% | FITC-ManBSA (FITC-labelled mannosylated bovine serum albumin) (from UniProt P02769 25-607)
